The target of data set [1] is FokI TAEL (+4) insertion mutant (Flavobacterium okeanokoites, UniProt P14870 P14870:2-579, insertion of TAEL after QLV in linker (linker SEQ 21)). Briefly: filter; similar to wild-type. Particulars: label: 32P. Here is the method:
(§1) The filter binding assays were performed in duplicate using *Fok*I or mutant enzymes and the four different synthetic substrates, SEQ ID NO:12, SEQ ID NO:13, hemi-methylated oligonucleotide of SEQ ID NO:12 and hemi-methylated oligonucleotide of SEQ ID NO:13. Nine different concentrations for each of the enzymes were made by serial dilutions ([…], 2000, 667, 222, 74.1, 24.7, 8.23, 2.74 and 0.914 nM). The enzymes were mixed with 40 nM of each labelled substrate along with 50 μg/ml p(dI-dC) and 50 μg/ml BSA in 50 μl of buffer A[10 mM Tris. phosphate (pH 8.0), 7 mM 2-mercaptoethanol, 1 mM EDTA, 50 mM NaCl, and 10% (vol/vol) glycerol]. The samples were incubated at 22° C. for 1 hr and then loaded on to nitrocellulose filters. The filters were washed twice with 0.5 ml of buffer A, dried and counted using the scintillation counter.
(§2) Why does the four amino-acid residue insertions enable the mutant enzymes to cleave hemi-methylated DNA and not the larger inserts? The four codon insertions could increase the affinity of the mutants for the hemi-methylated DNA. The binding affinities of wild-type enzyme and both four codon insertion mutants were compared by filter binding assays using the synthetic oligonucleotide substrates (FIGS. 9A, 9B and 9C). The binding affinities were measured in the presence of non-specific DNA, poly dI-dC.

For data set [2], the target named is FokI endonuclease wild-type (Flavobacterium okeanokoites, UniProt P14870 P14870:2-579). In words: filter; with poly(dI-dC), 1 mM EDTA, 50 mM NaCl, 22 C; values only in figure. Particulars: tags: expressed in E. coli RR1 from pRRSfokIR; label: 32P. The procedure:
as §1, §2

FokI endonuclease wild-type, sequence (P14870 2-579, one chain of several): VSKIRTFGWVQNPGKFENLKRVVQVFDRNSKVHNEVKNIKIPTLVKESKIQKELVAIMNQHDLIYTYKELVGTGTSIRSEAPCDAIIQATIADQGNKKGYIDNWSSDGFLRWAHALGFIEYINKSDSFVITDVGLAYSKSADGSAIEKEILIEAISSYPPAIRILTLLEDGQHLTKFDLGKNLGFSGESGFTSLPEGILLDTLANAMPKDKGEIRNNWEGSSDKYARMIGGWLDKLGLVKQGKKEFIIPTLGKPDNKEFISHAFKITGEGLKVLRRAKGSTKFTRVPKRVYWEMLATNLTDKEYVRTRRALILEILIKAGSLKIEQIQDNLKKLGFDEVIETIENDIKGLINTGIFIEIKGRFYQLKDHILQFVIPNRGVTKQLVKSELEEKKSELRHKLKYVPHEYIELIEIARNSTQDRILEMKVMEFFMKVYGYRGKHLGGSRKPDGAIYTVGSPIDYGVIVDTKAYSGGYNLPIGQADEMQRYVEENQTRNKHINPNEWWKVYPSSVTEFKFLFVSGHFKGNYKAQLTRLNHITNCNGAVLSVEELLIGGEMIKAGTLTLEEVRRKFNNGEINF
FokI TAEL (+4) insertion mutant, sequence (P14870 other isoform, or with tags, fused parts or gaps with the stated changes): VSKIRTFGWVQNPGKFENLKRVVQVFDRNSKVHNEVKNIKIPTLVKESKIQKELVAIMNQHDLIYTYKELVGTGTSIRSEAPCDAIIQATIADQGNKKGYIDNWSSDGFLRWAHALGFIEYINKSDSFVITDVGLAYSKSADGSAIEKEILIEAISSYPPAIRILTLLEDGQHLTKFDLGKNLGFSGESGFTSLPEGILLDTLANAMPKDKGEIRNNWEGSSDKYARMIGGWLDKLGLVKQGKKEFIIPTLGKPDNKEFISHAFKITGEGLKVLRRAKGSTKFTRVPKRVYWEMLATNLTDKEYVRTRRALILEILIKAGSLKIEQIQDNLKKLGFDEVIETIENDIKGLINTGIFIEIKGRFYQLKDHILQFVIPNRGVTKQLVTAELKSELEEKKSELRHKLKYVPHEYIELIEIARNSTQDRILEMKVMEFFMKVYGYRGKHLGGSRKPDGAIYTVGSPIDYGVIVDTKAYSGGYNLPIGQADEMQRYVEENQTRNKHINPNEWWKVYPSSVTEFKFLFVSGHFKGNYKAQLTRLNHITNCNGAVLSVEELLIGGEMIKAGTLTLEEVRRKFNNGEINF

B1: unmethylated FokI substrate (dsDNA)
DNA 1: CTAGAGTCAGAATTCGAAGACTTGCCGGATGATCTGCAGGCCAGCTGTGGCGTCTAAATTGA
DNA 2: AGCTTCAATTTAGACGCCACAGCTGGCCTGCAGATCATCCGGCAAGTCTTCGAATTCTGACT
As for B1, the binding result in data set [1] and in data set [2] was “binds” each time.

These data come from US5487994, “Insertion and deletion mutants of FokI restriction endonuclease” (The Johns Hopkins University).
